Measured values published in publication PMC3561992.

Biological target: T1, AtCyp59 full-length (Arabidopsis thaliana, UniProt Q6Q151 1-506)
T1 sequence: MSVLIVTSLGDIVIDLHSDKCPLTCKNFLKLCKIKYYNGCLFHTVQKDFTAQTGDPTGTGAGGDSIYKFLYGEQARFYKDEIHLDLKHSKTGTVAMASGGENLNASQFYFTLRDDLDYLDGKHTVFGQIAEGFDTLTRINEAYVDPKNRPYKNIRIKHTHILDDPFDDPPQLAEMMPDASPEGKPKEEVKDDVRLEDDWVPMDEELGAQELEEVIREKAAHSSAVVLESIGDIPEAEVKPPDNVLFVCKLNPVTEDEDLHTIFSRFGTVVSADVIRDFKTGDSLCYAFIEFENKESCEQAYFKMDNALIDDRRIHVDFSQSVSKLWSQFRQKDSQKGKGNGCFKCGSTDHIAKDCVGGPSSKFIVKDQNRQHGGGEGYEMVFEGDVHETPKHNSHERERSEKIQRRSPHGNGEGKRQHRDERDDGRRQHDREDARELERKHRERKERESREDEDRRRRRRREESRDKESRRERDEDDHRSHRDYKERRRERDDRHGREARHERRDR
Assay: EMSA

## GCUGCCG (ssRNA)
  Kd: 120 ± 25 nM

## GGAGCCA (ssRNA)
  Kd: 120 ± 25 nM

## GAUGCCA (ssRNA)
  Kd: 120 ± 25 nM

## GAUGCCG (ssRNA)
  Kd: 120 ± 25 nM

## GUGGCCA (ssRNA)
  Kd: 120 ± 25 nM

## GCCGCCA (ssRNA)
  Kd: 120 ± 25 nM

## GUGGCCG (ssRNA)
  Kd: 120 ± 25 nM

## GUAGCCG (ssRNA)
  Kd: 120 ± 25 nM

## GGUGCCG (ssRNA)
  Kd: 120 ± 25 nM

## GUUGCCG (ssRNA)
  Kd: 120 ± 25 nM

## GCCGCCG (ssRNA)
  Kd: 120 ± 25 nM

## GUCGCCG (ssRNA)
  Kd: 120 ± 25 nM

## GCGGCCG (ssRNA)
  Kd: 120 ± 25 nM

## GCGGCCA (ssRNA)
  Kd: 120 ± 25 nM

## GUCGCCA (ssRNA)
  Kd: 120 ± 25 nM

## GACGCCA (ssRNA)
  Kd: 120 ± 25 nM

## GUAGCCA (ssRNA)
  Kd: 120 ± 25 nM
